Drawing on article PMC5429843, this text covers pKa for 2 substances.

One data set addresses His187 (UniProt position 187, ITIKQHTVTTT). The data set can be described thus: NMR. The following applies: 20 °C, not stated (36 mM sodium phosphate + 36 mM sodium citrate, no added salt stated), folded GHaPrP90-231, 1 mM.
A further data set deals with His186 (UniProt position 186, ITVKQHTVTTT). The data set can be described thus: NMR. The following applies: 20 °C, not stated (36 mM sodium phosphate + 36 mM sodium citrate, no added salt stated), folded RaPrP90-231, 1 mM.

Take “Major prion protein, C-terminal domain (GHaPrP90-231) (Mesocricetus auratus (golden/Syrian hamster))”: the pKa – broadly, the negative logarithm of the acid dissociation constant – in the data set with His187 is reported as 4.9 ± 0.2; in the data set with His187 (oxidised disulfide. Progressive loss of amide dispersion and peak inhomogeneity near pH 5.), 4.9 ± 0.1.
With “Major prion protein, C-terminal domain (RaPrP90-231) (Oryctolagus cuniculus (rabbit))”, the pKa with His186 is recorded as 5.1; in the data set with His186 (oxidised disulfide), 5.1 ± 0.1.
